Data on two substances can be found in doi:10.1101/2025.05.23.655772.

What is called pKd is the negative decadic logarithm of the Kd, by convention in mol/L.

pKd: −log10 of the molar value.

The target of assay [1] is catalytically inactive USP5 C335A (human) (UniProt P45974). Briefly: FRET or BRET. Background: BRET reads energy transfer from a luciferase to a nearby fluorophore.
In assay [2] the target is ubiquitin-specific protease 5, wild type (human) (UniProt P45974). The experiment in a line: thermal shift assay.
Chain of ubiquitin-specific protease 5, wild type (human) (P45974 whole entry): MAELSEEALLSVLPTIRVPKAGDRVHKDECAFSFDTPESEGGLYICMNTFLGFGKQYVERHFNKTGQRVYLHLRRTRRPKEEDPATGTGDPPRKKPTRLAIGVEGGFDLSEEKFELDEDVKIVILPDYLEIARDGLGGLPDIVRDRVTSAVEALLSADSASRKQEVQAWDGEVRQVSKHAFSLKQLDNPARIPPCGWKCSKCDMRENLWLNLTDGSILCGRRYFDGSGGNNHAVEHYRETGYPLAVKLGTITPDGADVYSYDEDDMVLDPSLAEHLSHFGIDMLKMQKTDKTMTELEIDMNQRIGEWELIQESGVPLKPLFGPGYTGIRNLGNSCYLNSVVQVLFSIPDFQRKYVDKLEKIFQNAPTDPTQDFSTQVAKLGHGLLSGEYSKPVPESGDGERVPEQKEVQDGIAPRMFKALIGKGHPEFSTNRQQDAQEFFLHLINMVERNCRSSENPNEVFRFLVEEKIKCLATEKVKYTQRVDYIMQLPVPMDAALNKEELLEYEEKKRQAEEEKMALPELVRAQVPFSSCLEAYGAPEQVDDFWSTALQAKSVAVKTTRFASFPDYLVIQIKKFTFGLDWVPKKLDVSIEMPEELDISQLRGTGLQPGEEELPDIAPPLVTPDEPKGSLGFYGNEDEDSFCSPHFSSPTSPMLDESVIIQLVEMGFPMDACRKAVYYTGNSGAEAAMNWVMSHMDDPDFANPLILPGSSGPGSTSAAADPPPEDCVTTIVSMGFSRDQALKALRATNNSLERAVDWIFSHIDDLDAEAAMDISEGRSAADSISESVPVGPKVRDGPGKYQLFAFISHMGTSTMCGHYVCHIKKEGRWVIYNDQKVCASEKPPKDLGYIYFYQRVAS

Chain of catalytically inactive USP5 C335A (human) (P45974 whole entry C335A): as the sequence (P45974 whole entry) above, with C335A counted along it

In assay [1], “Cy5-labelled SDE2UBL (from UniProt Q6IQ49 1-77) (domain or fragment)” gave a pKd of 6.00.
In the case of “ISG15-PA, ISG15 propargylamide activity-based probe (from UniProt P05161 1-157)”, the Tm of the covalent complex in assay [2] was determined as 57.6 °C.
